The source of these data is patent publication US20130095503A1, “SERUM SPLA2-IIA AS DIAGNOSIS MARKER FOR PROSTATE AND LUNG CANCER” (UNIVERSITY OF CINCINNATI, priority 2010, published 2013).

For assay [1], the target named is T1, HER2 (Homo sapiens, UniProt P04626). Put plainly: Western blot of P-HER2 in LNCaP-AI prostate cancer cells treated with sPLA2-IIA. Also on record: endogenous in cells. The class given is cell-based. The conditions noted are these: 0.5 μg/mL for 0-180 min or 0-0.5 μg/mL for 2 H, FIG. 23. As to the method:
Additionally, LNCaP-AI prostate cancer cells were starved in 1% stripped medium for 24 H. The cells were then treated with recombinant human sPLA2-IIA (0.5 μg/mL) for 30 to 180 minutes (0, 30, 60, 120, or 180 min) or with various concentrations of sPLA2-IIA (0, 0.125, 0.25, or 0.5 μg/mL) for 2 H in medium containing 10% FBS. Cell extracts were prepared and subjected to western blot analysis for P-HER2 and HER2. Western blot analysis was conducted as previously described.
Background: A western blot detects proteins with antibodies after separation by electrophoresis.

Assay [2] deals with T1, HER2. Put plainly: Western blot of P-HER2 in lung cancer cells treated with sPLA2-IIA. It is filed as cell-based. Also on record: endogenous in cells; host or cells: A549 lung cancer cells. The conditions noted are these: A549 and H1975 cells (FIG. 22A: A549), 0-0.5 μg/mL, 2 H, 10% FBS. The method, then: (§1) A549 and H1975 lung cancer cells were starved in 1% stripped medium for 24 H. The cells were then treated with recombinant human sPLA2-IIA (0.5 μg/mL) with various concentrations (0, 0.125, 0.25, or 0.5 μg/mL) of sPLA2-IIA for 2 H in medium containing 10% fetal bovine serum (hereinafter “FBS”). Cell extracts were prepared and subjected to western blot analysis for HER2, P-HER2, HER3, and P-HER3. Western blot analysis was conducted as previously described.

For the next assay, the system named is LNCaP-AI cells. Put plainly: MTT growth assay in LNCaP-AI cells. The class given is cell-based, human. The conditions noted are these: 10% stripped medium, about 4 days, FIG. 11. As to the method:
The role of sPLA2-IIA in the growth of prostate cancer cells was studied by MTT assay. Specifically, LNCaP-AI cells were cultured in 10% stripped medium in the presence of EGF (ng/mL) or sPLA2-IIA (ng/mL) for about 4 days, followed by performance of an MTT assay. The role of sPLA2-IIA on prostate cancer cell growth was also studied by blocking the activity of sPLA2-IIA in LNCaP-AI cells. The activity of sPLA2-IIA was blocked in LNCaP-AI cells by administering the peptide inhibitor cFLYSYR (μM) or c(NapA)R (μM) for about 4 days, followed by performance of an MTT assay.

Another assay concerns the target T2, HER3 (Homo sapiens, UniProt P21860).
T2 construct: endogenous in cells; host or cells: H1975 lung cancer cells
Put plainly: Western blot of P-HER3 in lung cancer cells treated with sPLA2-IIA. It is filed as cell-based. The conditions noted are these: A549 and H1975 cells (FIG. 22B: H1975), 0-0.5 μg/mL, 2 H, 10% FBS. The method, then: as §1

T2 sequence (P21860 20-1342): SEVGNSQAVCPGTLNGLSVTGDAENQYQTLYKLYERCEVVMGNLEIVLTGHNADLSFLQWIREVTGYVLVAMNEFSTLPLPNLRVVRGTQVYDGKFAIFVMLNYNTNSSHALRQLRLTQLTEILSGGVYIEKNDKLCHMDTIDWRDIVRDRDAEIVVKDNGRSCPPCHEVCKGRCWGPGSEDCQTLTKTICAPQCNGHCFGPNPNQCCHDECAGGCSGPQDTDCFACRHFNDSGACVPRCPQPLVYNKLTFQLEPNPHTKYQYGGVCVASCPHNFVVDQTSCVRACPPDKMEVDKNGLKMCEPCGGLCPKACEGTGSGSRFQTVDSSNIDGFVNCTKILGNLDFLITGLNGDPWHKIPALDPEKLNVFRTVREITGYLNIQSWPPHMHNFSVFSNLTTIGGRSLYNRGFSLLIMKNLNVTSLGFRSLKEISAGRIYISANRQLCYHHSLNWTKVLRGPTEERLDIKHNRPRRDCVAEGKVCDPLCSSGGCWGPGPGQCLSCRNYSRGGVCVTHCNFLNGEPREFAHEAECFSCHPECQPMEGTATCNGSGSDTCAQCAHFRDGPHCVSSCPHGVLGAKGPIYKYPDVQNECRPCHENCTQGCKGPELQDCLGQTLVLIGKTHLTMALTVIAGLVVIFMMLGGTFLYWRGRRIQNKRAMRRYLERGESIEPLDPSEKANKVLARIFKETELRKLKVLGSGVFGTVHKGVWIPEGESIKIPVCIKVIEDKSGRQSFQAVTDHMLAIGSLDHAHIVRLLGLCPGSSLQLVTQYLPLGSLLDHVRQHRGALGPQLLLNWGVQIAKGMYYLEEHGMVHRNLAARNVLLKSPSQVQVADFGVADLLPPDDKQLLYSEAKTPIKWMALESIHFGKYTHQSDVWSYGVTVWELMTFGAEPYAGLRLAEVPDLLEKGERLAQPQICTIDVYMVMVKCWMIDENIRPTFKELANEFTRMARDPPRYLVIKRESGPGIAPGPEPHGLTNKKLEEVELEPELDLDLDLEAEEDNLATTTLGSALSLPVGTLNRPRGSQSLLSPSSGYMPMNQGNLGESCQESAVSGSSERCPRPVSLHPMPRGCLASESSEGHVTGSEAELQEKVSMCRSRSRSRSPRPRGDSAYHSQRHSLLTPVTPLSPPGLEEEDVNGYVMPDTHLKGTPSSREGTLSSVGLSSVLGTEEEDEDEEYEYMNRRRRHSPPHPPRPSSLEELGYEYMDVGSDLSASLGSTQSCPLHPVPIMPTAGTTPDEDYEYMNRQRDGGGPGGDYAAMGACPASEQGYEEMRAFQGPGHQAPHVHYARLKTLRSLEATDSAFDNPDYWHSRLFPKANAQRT

B1: recombinant human sPLA2-IIA: recombinant human secretory phospholipase A2-IIA (protein, UniProt P14555 21-144, looked up)
Phospholipase A2, membrane …: NLVNFHRMIKLTTGKEAALSYGFYGCHCGVGGRGSPKDATDRCCVTHDCCYKRLEKRGCGTKFLSYKFSNSGSRITCAKQDSCRSQLCECDKAAATCFARNKTTYNKKYQYYSNKHCRGSTPRC
Regarding B1, the “phosphorylation of HER2” value in the assay with HER2 [1] and with HER2 [2] was “induced phosphorylation” in each case. In addition, the “prostate cancer cell growth (MTT)” value with LNCaP-AI cells is listed as “stimulates prostate cancer cell growth”. The “phosphorylation of HER3” value with HER3 was “induced phosphorylation”.
